# Assay results taken from US7732592B2, “ALK protein tyrosine kinase, cells and methods embodying and using same” (New York University, priority 2003, dated 2010).
# How the values were obtained:
# [1] = tested on: TS cells; experiment: Cell death of sorted GFP-positive TS cells by microscopy; assay type: cell-based, human; conditions: sorted TS cells (>95% GFP), 24 hr after cell sorting
# Procedure: FIG. 11. Anti-ALK siRNA inhibits growth and induces cell death in TS cells. ShRNA A5 leads ALK+ ALCL cells to cell death. Human TS cells were transduced with pSRG or pSRG-A5 constructs, and […], GFP-positive cells were sorted using MoFo sorter. (A) Highly enriched GFP+ cells (>95%) were evaluated (24 hours after sorting) using a light or fluorescent inverted microscope, (bright field: left panels). 5×10^3/well cells were plated (96-well plate) and the percentage of alive cells was calculated overtime (B). Total number of live cells was also calculated at day 3, 4 and 6 after sorting (C).
# To study whether ALK siRNA could promote cell death, highly enriched A5-GFP-positive TS cells by cell sorting (>95% GFP) were evaluated by microscopy. […] These findings were confirmed with enumeration of viable cells by trypan blue exclusion (FIG. 11B) and proliferating cell quantitation using total cell counts (FIG. 11C).
# [2] = tested on: ATIC-ALK; experiment: Co-transfection of pSUPER shRNA vectors with Pallino ATIC-ALK in HEK-293T cells, Western blot; assay type: cell-based; conditions: transfected HEK-293T cells
# Procedure: (§1) FIG. 8. Selection of anti-ALK shRNA. […] HEK-293T were co-transfected with Pallino NPM-ALK (2 μg) and one of six different pSUPER vectors carrying shRNA specific for ALK sequences (pS-A1-6)(8 μg). Cells were lysed 72 hours post-transfection and immunoblotted with the indicated antibodies. −=no transfection; A pSUPER-shRNA carrying a p53 specific sequence was used a unrelated control. (pS-p53) (B) ALK5 (A5) inhibits ATIC-ALK protein expression. HEK-293T were co-transfected with Pallino ATIC-ALK and pSUPER-ALK shRNA interfering sequences as above. Expression of ATIC-ALK protein was determined by Western blot analysis as described above. (C) ALK5 (A5) inhibits ALK receptor (ALK-R) protein expression. HEK-293T cells were co-transfected with Pallino ALK-R and pSUPER-ALK shRNA interfering sequences as above.
# (§2) Transfections of HEK-293T, GP-293, and MEF Tet-Off cells were performed with Effectene reagent (Qiagen, Valencia, Calif., USA), according to the manufacturer's instructions.
# (§3) For Western Blot analysis, cells were lysed (50 mM Tris-HCl, pH 7.4, 150 mM NaCl, 0.1% Triton X-100, 5 mM EDTA, 1 mM Na3VO4, and 1 mM phenylmethyl sulfonyl fluoride and protease inhibitors). Total protein lysates (20 μg) were electrophoresed in SDS-PAGE gel and transferred onto nitrocellulose membranes. […]
# [3] = tested on: ALK receptor (ALK-R); experiment: Co-transfection of pSUPER shRNA vectors with Pallino ALK-R in HEK-293T cells, Western blot; assay type: cell-based; conditions: transfected HEK-293T cells
# Procedure: as §1, §2, §3
# [4] = tested on: NPM-ALK; experiment: NPM-ALK protein expression in MEF NPM-ALK Tet-Off cells after retroviral infection, Western blot; assay type: cell-based
# Procedure: FIG. 9. Anti-ALK siRNA inhibits NPM-ALK-mediated transformation of MEF cells. (A) Suppression of NPM-ALK expression leads to down-regulation of known downstream targets of ALK. MEF NPM-ALK Tet-Off cells were infected with pSRG-A5 virus, transduction efficiency was assessed 72 hours post-infection by FACS analysis of GFP (40%). pSRG-A5-infected cells were further enriched by selection with 1 mg/ml puromycin for 1 week (90%). NPM-ALK expression was inhibited by doxycyclin withdrawn. Protein expression was evaluated culturing (72 hr) semi-confluent cells in absence of doxycyclin. (B) shRNA A-5 expression leads to G0/G1 cell cycle arrest. DNA content analysis was performed in cells grown to confluence and kept in 0.2% serum medium for 72 hours in presence of absence of doxycyclin. Cells were then listed and analysed by Western blotting with indicated antibodies. […] Tumor growth was monitored weekly for 4 weeks. […]
# Retroviral supernatants were produced by co-transfection of GP-293 packaging cells with pSRGAx and pVSV-G (Clontech, Palo Alto, Calif., USA); virus-containing supernatants were collected at 48, 72 and 90 hours, filtrated and concentrated by centrifugation. […] Transfection and infection efficiencies were calculated using the percentage of GFP positive cells, identified using fluorescence microscopy (Leica IM RE2) or flow cytometry (FACSCalibur, BD Biosciences, San Josè, Calif., USA). […]
# [5] = tested on: MEF-NPM-ALK cells; experiment: Morphology of MEF-NPM-ALK cells after infection; assay type: cell-based
# Description: Since NPM-ALK expression in MEF cells leads to relevant morphological changes including cell elongation, bipolarized formations and loose plate attachment, the effect of inhibition of NPM-ALK expression on the phenotype of these cells was then studied. […] Furthermore, highly enriched GFP^+, puromycin resistant pSRG-A5MEF-NPM-ALK cells injected into athymic Nu/Nu mice (1×10^6 cells) grew poorly compared to control infected cells (FIG. 9 D).
# [6] = tested on: NPM-ALK; experiment: Co-transfection of pSUPER shRNA vectors with Pallino-NPM-ALK in HEK-293T cells, Western blot; assay type: cell-based; conditions: HEK-293T co-transfected with Pallino-NPM-ALK; after 48 hrs from transfection
# Procedure: as §1, with “Cells were lysed 72 hours post-transfection and immunoblotted with the indicated antibodies. −=no transfection; A pSUPER-shRNA carrying a p53 specific sequence was used a unrelated control.” left out
# as §2
# For Western Blot analysis, cells were lysed (50 mM Tris-HCl, pH 7.4, 150 mM NaCl, 0.1% Triton X-100, 5 mM EDTA, 1 mM Na3VO4, and 1 mM phenylmethyl sulfonyl fluoride and protease inhibitors). Total protein lysates (20 μg) were electrophoresed in SDS-PAGE gel and transferred onto nitrocellulose membranes. The filters were first blocked (5% low fat milk in PBS with 0.1% Tween 20; 1 h at RT), and then incubated with the primary antibodies for 1 hour at room temperature. […]
molecule,measurement,setting,value
"A5: short hairpin oligonucleotide against cytoplasmic domain of ALK, SEQ ID NO: 5; in pSUPER vector (nucleic acid) GATCCCCGGGCGAGCTACTATAGAAATTCAAGAGATTTCTATAGTAGCTCGCCCTTTTTGGAAA","cells with shrunken, picnotic nuclei lacking detectable GFP expression",[1],> 50%
same,expression of ATIC-ALK,[2],successfully abrogate expression
same,expression of ALK receptor,[3],successfully abrogate expression
same,NPM-ALK protein expression,"[4]; MEF NPM-ALK Tet-Off after doxycyclin withdrawal, proportional to percentage of GFP positive cells",significant down-regulation
same,NPM-ALK level in MEF-NPM-ALK cells after infection,[4]; MEF-NPM-ALK cells,very low levels
same,cellular morphology (transformed phenotype),[5],regained their normal pre-transformed cellular features
same,down-regulation of the protein level of NPM-ALK,[6],> 90%
